Literature values, collected in patent US11474093B2, “Analysis method of protein-protein interaction and a screening method of protein-protein interaction inhibitors using a nanopore” (Korea Research Institute of Bioscience and Biotechnology, priority 2016, dated 2022).
Read-outs that look alike come from different tables or passages of the source.

Target: MDM2 (Homo sapiens, UniProt Q00987)
Sequence (Q00987 whole entry): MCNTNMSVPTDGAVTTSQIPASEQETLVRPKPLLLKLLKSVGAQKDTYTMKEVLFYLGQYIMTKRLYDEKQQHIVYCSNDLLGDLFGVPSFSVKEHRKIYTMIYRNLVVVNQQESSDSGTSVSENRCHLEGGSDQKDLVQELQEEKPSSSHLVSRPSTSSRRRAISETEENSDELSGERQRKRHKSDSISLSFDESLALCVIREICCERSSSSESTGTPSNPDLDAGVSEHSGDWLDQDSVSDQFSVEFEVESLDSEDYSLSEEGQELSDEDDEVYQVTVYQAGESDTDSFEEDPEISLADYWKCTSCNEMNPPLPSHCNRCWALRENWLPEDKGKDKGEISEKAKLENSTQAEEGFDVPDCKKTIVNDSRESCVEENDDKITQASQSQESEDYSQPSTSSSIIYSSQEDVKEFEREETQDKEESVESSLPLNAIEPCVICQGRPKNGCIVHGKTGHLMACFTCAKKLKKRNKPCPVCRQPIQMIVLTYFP

Kd (read-out: Kd of the interaction between MDM2 and p53TAD): 600 nM
Kd (read-out: dissociation coefficient (Kd) with MDM2): ~600 nM
Substance: p53TAD: residues 1 to 73 of p53 transactivation domain (TAD)
